Assays:
Assay type in all cases: cell-based
[1] = test system: promoter region of the human type-I collagen α2 strand gene (binding reporter vector); test: CAT reporter assay of test substances, binding reporter vector-transduced fibroblast
Protocol: (§1) 2 ml of an angelica extract [ICHIMARU-PHARCOS, PHARCOLEX (trade mark of ICHIMARU-PHARCOS), angelica] and 2 ml of a basswood extract [ICHIMARU-PHARCOS, PHARCOLEX (trade mark of ICHIMARU-PHARCOS), linden] were freeze-dried and each was combined with 1 ml of dimethyl sulfoxide (hereinafter referred to as DMSO) per 50 mg of the freeze-dried material, whereby obtaining an angelica extract sample and a linden extract sample.
(§2) A normal human fetal dermal fibroblast was inoculated in a population of 1×10^6 cells in a 60-mm dish and incubated in D-MEM (+) overnight at 37° C. under 5% CO2 atmosphere, and then the culture medium was replaced with D-MEM (−). On the other hand, 100 μl of D-MEM (−) was combined with either of 2 μg of the binding reporter vector DNA or 2 μg of the non-binding reporter vector DNA obtained in Example 2 (3), and the mixture was allowed to stand at room temperature for 40 minutes (Solution 1). To 100 μl of MEM(−), 4.5 μl of Lipofectine (Gibco, Catalog No.18292-011) was added and the mixture was allowed to stand at room temperature for 40 minutes (Solution 2). Then Solution 1 and Solution 2 were mixed and allowed to stand at room temperature for 10 minutes, and then combined with 2 ml of D-MEM (−) and mixed. This mixture was added to the normal human fetal fibroblast described above, which was then incubated at 37° C. under 5% CO2 atmosphere for 6 hours. […]

[2] = test system: human type-I collagen α2 strand mRNA; test: Type-I collagen α2 strand mRNA quantity (northern blotting) with test substances; details: extract 50 μg lyophilized sample per ml, INF-γ 100 U/ml
Protocol: A normal human fetal dermal fibroblast was inoculated in a population of […] in a 100-mm dish and incubated in D-MEM (+) overnight at 37° C. under 5% CO2 atmosphere. This cell was supplemented with the angelica extract sample prepared in Example 7 (2) at 50 μg lyophilized sample per ml medium and incubated further for 24 hours. In a case of negative control, the angelica extract sample was replaced with DMSO (added at 0.1% in the medium).
In a case of positive control, the angelica extract sample was replaced with INF-γ (added at 100 U/ml in the medium). The cell thus incubated was washed twice with a PBS, and used to prepare a total RNA similarly to Example 1 (1). […] The radioactivity of the air-dried filter was determined using BAStation.
On the other hand, 10 μg of the total RNA was subjected to an electrophoresis on the gel described above which contained 0.5 μg/ml of ethidium bromide (Gibco BRL, Catalog No.15582-018) and the fluorescent intensity of 28S ribosome RNA was quantified using Luminescent Image Analyzer LAS-1000 plus (FUJI FILM) and Image Gauge Ver 3.12 (FUJI FILM). The quantity of the type-I collagen α2 strand mRNA relative to the 28S ribosome RNA was calculated in accordance with the following equation. Type-I collagen α2 strand mRNA quantity=Radioactivity of band of about 5.8 kb/fluorescent intensity of 28S ribosome RNA […]

[3] = test system: DNA-binding protein of invention (YB-1) fused with GFP (pCMX-YB-1-GFP); test: Fluorescent microscope examination of migration of YB-1-GFP into the nucleus; details: human fibroblast transduced with pCMX-YB-1-GFP; 4 hours contact; IFN-γ 100 U/ml as positive control
Protocol: 100 ng of YB-1/RSV, 10 pmol of an oligonucleotide consisting of the nucleotide sequence represented by SEQ ID NO:.15, 10 pmol of an oligonucleotide consisting of the nucleotide sequence represented by SEQ ID NO:.16, 5 μl of the buffer included in KOD-Dash (TOYOBO, Catalog No.RR002A), 5 μl of Mg^2+ solution, 5 μl of dNTP mixture, 1 μl of KOD-Dash and distilled water were mixed to prepare 50 μl in total of a PCR solution, which was used to perform a PCR. The condition of the PCR involved an incubation at 94° C. for 2 minutes, followed by 35 cycles, each cycle involving the incubations at 94° C. for 15 seconds, 60° C. for 30 seconds and then 68° C. for 1 minute. After the PCR, the PCR solution was digested with HindIII and Pm1I and subjected to an ethanol precipitation to recover a DNA (hereinafter a DNA obtained as a residue is referred to as a YB-1DNA.). […] The nucleotide sequence of the plasmid DNA thus obtained was analyzed, and a plasmid having a nucleotide sequence in which a GFP amino acid sequence was encoded downstream of the amino acid sequence of the DNA-binding protein of the present invention with its reading flame being continued was selected. […]

[4] = test system: non-binding reporter vector; test: CAT reporter assay of test substances, non-binding reporter vector-transduced fibroblast; details: normal human fetal dermal fibroblast; sample 1 μg freeze dried material/ml, IFN-γ 100 U/ml; 40 hours; negative control of binding reporter cell = 1.0
Protocol: as §1, §2

Row | Molecule | relative CAT activity ([1]; binding reporter vector-transduced normal human fetal dermal fibroblast, 8 μM in medium, methanol negative control = 1.0) | Relative CAT activity, binding reporter vector-transduced cell ([1]; normal human fetal dermal fibroblast, sample 1 μg freeze dried material/ml, IFN-γ 100 U/ml, 40 hours, negative control = 1.0) | Relative transcription level of type-I collagen gene (α2 strand mRNA level) ([2]; Table 5, TGFβ column prints Absent (method: TGFβ 10 ng/ml), negative control with TGFβ = 1.0) | Relative transcription level of type-I collagen gene (α2 strand mRNA level) ([2]; normal human fetal dermal fibroblast, TGFβ absent, 24 hours, negative control = 1.0) | localisation of YB-1-GFP fluorescence (cytoplasmic / intranuclear) [3] | Relative CAT activity, non-binding reporter vector-transduced cell [4]
1 | CC(O)C(O)/C=C/C=C\CC/C=C/C(=O)NCC(C)(C)O (stereo not drawn) [Compound A] | 0.7 | – | – | – | – | –
2 | Positive control: interferon-γ (Roche) added at 100 U/ml in the medium (protein, UniProt P01579 24-161, looked up) Interferon gamma: QDPYVKEAENLKKYFNAGHSDVADNGTLFLGILKNWKEESDRKIMQSQIVSFYFKLFKNFKDDQSIQKSVETIKEDMNVKFFNSNKKKRDDFEKLTNYSVTDLNVQRKAIHELIQVMAELSPAAKTGKRKRSQMLFRG | – | 0.6 | 0.5 | 0.5 | no cytoplasmic fluorescence | 0.9

Reference: patent US8404652B2, “DNA-binding protein YB-1-containing collagen accumulation inhibitors” (Sumitomo Chemical Company, Limited, priority 2000, dated 2013)
